Measurements: patent US20140099280A1

T1: whole human interleukin 33 (IL-33aa1-270)
T1 chain: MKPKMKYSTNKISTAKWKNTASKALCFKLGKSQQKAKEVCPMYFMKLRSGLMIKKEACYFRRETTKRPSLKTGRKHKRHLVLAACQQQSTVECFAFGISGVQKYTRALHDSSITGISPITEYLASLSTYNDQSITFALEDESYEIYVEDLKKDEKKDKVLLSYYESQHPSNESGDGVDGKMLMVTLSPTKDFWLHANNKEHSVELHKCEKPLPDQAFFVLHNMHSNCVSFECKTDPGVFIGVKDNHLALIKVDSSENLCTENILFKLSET

T2: truncated human IL-33 (IL-33aa112-270)
T2 chain: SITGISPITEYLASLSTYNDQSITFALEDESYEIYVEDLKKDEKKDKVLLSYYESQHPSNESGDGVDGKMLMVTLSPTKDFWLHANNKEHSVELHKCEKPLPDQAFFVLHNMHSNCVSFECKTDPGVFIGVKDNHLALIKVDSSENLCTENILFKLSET

B1: leukocyte proteinase 3 (protein)
chain: IVGGHEAQPHSRPYMASLQMRGNPGSHFCGGTLIHPSFVLTAAHCLRDIPQRLVNVVLGAHNVRTQEPTQQHFSVAQVFLNNYDAENKLNDVLLIQLSSPANLSASVATVQLPQQDQPVPHGTQCLAMGWGRVGAHDPPAQVLQELNVTVVTFFCRPHNICTFVPRRKAGICFGDSGGPLICDGIIQGIDSFVIWGCATRLFPDFFTRVALYVDWIRSTLR
B2: human cathepsin G (protein)
chain: IIGGRESRPHSRPYMAYLQIQSPAGQSRCGGFLVREDFVLTAAHCWGSNINVTLGAHNIQRRENTQQHITARRAIRHPQYNQRTIQNDIMLLQLSRRVRRNRNVNPVALPRAQEGLRPGTLCTVAGWGRVSMRRGTDTLREVQLRVQRDRQCLRIFGSYDPRRQICVGDRRERKAAFKGDSGGPLLCNNVAHGIVSYGKSSGVPPEVFTRVSSFLPWIRTTMRS
B3: neutrophil elastase 2 (protein)
chain: IVGGRRARPHAWPFMVSLQLRGGHFCGATLIAPNFVMSAAHCVANVNVRAVRVVLGAHNLSRREPTRQVFAVQRIFENGYDPVNLLNDIVILQLNGSATINANVQVAQLPAQGRRLGNGVQCLAMGWGLLGRNRGIASVLQELNVTVVTSLCRRSNVCTLVRGRQAGVCFGDSGSPLVCNGLIHGIASFVRGGCASGLYPDAFAPVAQFVNWIDSIIQ

biological target: ST2 receptor on murine MC/9 mast cells (murine (MC/9 mast cell line)) (UniProt P14719); test: cell-based or functional assay
Sequence of UniProt P14719 (P14719 27-567): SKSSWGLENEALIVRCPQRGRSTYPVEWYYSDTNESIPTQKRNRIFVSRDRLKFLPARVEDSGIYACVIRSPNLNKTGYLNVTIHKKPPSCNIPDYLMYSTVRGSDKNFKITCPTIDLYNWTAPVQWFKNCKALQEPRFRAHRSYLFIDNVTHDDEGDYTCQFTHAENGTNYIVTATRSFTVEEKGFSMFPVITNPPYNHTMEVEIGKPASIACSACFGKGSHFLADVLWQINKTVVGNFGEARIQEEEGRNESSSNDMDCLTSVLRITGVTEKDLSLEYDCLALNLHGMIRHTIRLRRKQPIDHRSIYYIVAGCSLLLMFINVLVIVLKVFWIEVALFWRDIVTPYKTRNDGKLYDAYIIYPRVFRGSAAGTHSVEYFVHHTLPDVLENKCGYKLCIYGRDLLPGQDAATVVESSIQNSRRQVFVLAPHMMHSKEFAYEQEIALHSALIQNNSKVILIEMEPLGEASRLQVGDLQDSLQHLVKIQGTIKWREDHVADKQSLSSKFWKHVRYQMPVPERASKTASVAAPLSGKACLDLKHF

secretion of IL-6 by MC/9 mast cells (ELISA), relative to whole IL-33 (fold vs whole IL-33) | Molecule
4 | IL-33aa95-270 (from UniProt O95760 95-270) (ligand)
4 | IL-33aa109-270 (from UniProt O95760 109-270) (ligand)
4 | IL-33aa99-270 (from UniProt O95760 99-270) (ligand)

Biological target: T1, whole human interleukin 33 …
Test: not given

Molecule | cleavage in vitro, SDS-PAGE and western blot
B1 | Human IL-33 is the target of the recombinant proteases Cathepsin G (Cat G), Elastase 2 (Elastase), and Proteinase 3 (PR3), which generate, in vitro, the three mature fragments IL-33aa95-270, IL-33aa99-270 and IL-33aa109-270
B2 | Human IL-33 is the target of the recombinant proteases Cathepsin G (Cat G), Elastase 2 (Elastase), and Proteinase 3 (PR3), which generate, in vitro, the three mature fragments IL-33aa95-270, IL-33aa99-270 and IL-33aa109-270
B3 | Human IL-33 is the target of the recombinant proteases Cathepsin G (Cat G), Elastase 2 (Elastase), and Proteinase 3 (PR3), which generate, in vitro, the three mature fragments IL-33aa95-270, IL-33aa99-270 and IL-33aa109-270

Biological target: T2, truncated human IL-33 (IL-33aa112-270)
Test: not given

Molecule | cleavage in vitro, western blot
B1 | the truncated form IL-33aa112-270, which remains intact in the presence of these proteases
B2 | the truncated form IL-33aa112-270, which remains intact in the presence of these proteases
B3 | the truncated form IL-33aa112-270, which remains intact in the presence of these proteases
